Kd data for one molecule are collected here from US6461867.

This assay deals with SEV-9 peptide (Sendai virus nucleoprotein 324-332) (Sendai virus).

B1: soluble H-2K^b (K^bsol), empty heterodimer of truncated K^b heavy chain and murine β-2 microglobulin (other)
alpha: GPHSLRYFVTAVSRPGLGEPRYMEVGYVDDTEFVRFDSDAENPRYEPRARWMEQEGPEYWERETQKAKGNEQSFRVDLRTLLGYYNQSKGGSHTIQVISGCEVGSDGRLLRGYQQYAYDGCDYIALNEDLKTWTAADMAALITKHKWEQAGEAERLRAYLEGTCVEWLRRYLKNGNATLLRTDSPKAHVTHHSRPEDKVTLRCWALGFYPADITLTWQLNGEELIQDMELVETRPAGDGTFQKWASVVVPLGKEQYYTCHVYHQGLPEPLTLRW
beta: IQKTPQIQVYSRHPPENGKPNILNCYVTQFHPPHIEIQMLKNGKKIPKVEMSDMSFSKDWSFYILAHTEFTPTETDTYACRVKHASMAEPKTVYWDRDM
Usually Kd stands for the constant that tells how readily two partners part at equilibrium. With B1, the Kd turned out to be 2.7 nM.
